Read-outs that look alike come from different tables or passages of the source.
B1: Radil RA domain (residues 51-193) (domain or fragment, human, UniProt Q96JH8 51-193, looked up)
chain: DPAELSTQLSAPGVLKVFGDSVCTGTHYKSVLATGTSSARELVKEALERYALDPRQAGQYVLCDVVGQAGDAGQRWQARCFRVFGDSEKPLLIQELWKPREGLSRRFELRKRSDVEELAAKEVDTITAGINAQARRLQRSRAK
B2: trypsin-treated Rasip1 RA domain (domain or fragment, human, UniProt Q5U651 141-285, looked up)
chain: ATAPPGVLKIFGAGLASGANYKSVLATARSTARELVAEALERYGLAGSPGGGPGESSCVDAFALCDALGRPAAAGVGSGEWRAEHLRVLGDSERPLLVQELWRARPGWARRFELRGREEARRLEQEAFGAADSEGTGAPSWRPQK
B3: Rap1B (residues 1-167), GMP-PNP bound (domain or fragment, human, UniProt P61224 1-167, looked up)
chain: MREYKLVVLGSGGVGKSALTVQFVQGIFVEKYDPTIEDSYRKQVEVDAQQCMLEILDTAGTEQFTAMRDLYMKNGQGFALVYSITAQSTFNDLQDLREQILRVKDTDDVPMILVGNKCDLEDERVVGKEQGQNLARQWNNCAFLESSAKSKINVNEIFYDLVRQINR
B4: Rasip1 RA domain (residues 134-285) (domain or fragment, human, UniProt Q5U651 134-285, looked up)
chain: EPPLATRATAPPGVLKIFGAGLASGANYKSVLATARSTARELVAEALERYGLAGSPGGGPGESSCVDAFALCDALGRPAAAGVGSGEWRAEHLRVLGDSERPLLVQELWRARPGWARRFELRGREEARRLEQEAFGAADSEGTGAPSWRPQK

What was measured:
[1] = molecular target: HRas (residues 1-189), GMP-PNP bound (human, UniProt P01112 1-189); assay: ITC
[2] = molecular target: B3; assay: ITC
[3] = molecular target: B3; assay: crystal structure
crystal structure = molecular target: the molecule itself; assay: crystal structure
[4] = molecular target: B1; assay: ITC
[5] = molecular target: B4; assay: ITC
NMR linewidths = molecular target: the molecule itself; assay: NMR linewidths
[6] = molecular target: B3; assay: ITC; remark: listed apart in the source

HRas (residues 1-189), GMP-PNP bound, sequence (P01112 whole entry, the tested form may be a part): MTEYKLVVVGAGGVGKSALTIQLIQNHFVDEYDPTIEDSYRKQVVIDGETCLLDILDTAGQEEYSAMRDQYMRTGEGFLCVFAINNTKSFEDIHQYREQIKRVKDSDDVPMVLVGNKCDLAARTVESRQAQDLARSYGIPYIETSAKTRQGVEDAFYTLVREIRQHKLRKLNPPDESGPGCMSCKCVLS

Binder: B1
Kd [1]: 3900 nM | Kd [2]: 1200 nM

Binder: B2
binding result [3]: binds | binding result (crystal structure): binds

Binder: B3
dH [4]: -6.5 kcal/mol | stoichiometry N [4]: 1.04 | dH [5]: -3.4 kcal/mol | stoichiometry N [5]: 1.22

Binder: B4
binding result (NMR linewidths): binds | Kd [6]: 770 ± 90 nM | Kd [1]: 2200 nM | Kd [2]: 900 nM

— paper PMC5143164 (Structure (London, England : 1993), 2016)
